The values that follow come from PMC11357852 (Molecular Therapy. Methods & Clinical Development, 2024).

This assay deals with T1, recombinant mouse HEXB (beta-subunit of beta-hexosaminidase) (mouse, UniProt P20060 32-536).
T1 sequence (looked up): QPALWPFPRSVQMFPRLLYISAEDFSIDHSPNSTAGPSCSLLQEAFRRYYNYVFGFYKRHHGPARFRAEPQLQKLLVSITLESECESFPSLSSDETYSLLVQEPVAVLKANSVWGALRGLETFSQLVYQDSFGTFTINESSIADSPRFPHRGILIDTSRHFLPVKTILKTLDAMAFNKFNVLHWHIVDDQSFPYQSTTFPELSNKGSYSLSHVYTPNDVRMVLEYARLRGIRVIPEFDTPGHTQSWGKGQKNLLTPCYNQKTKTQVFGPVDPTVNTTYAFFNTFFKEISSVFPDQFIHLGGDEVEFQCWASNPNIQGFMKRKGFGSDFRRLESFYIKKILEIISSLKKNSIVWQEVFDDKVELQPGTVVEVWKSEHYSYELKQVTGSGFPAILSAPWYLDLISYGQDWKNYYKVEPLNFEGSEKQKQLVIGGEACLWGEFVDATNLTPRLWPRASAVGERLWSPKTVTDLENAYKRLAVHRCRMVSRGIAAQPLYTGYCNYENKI
Description: binding to a coated plate, bound protein read by HexA enzymatic activity.

B1: mouse-Transferrin-G-CSF-HEXA (mTr-G-CSF-HEXA) (other)
chain: HAIYPRHGSVPLVTVSALPPSLPLPRSFLLKSLEQVRKIQASGSVLLEQLCATYKLCHPEELVLLGHSLGIPKASLSGCSSQALQQTQCLSQLHSGLCLYQGLLQALSGISPALAPTLDLLQLDVANFATTIWQQMENLGVAPTVQPTQSAMPAFTSAFQRRAGGVLAISYLQGFLETARLALHHLAGSGSDRVYIHPFHLGSGSGGSGGSGGSGSGGSGSGGSGGSGLWPWPQYIQTYHRRYTLYPNNFQFRYHVSSAAQAGCVVLDEAFRRYRNLLFGSGSWPRPSFSNKQQTLGKNILVVSVVTAECNEFPNLESVENYTLTINDDQCLLASETVWGALRGLETFSQLVWKSAEGTFFINKTKIKDFPRFPHRGVLLDTSRHYLPLSSILDTLDVMAYNKFNVFHWHLVDDSSFPYESFTFPELTRKGSFNPVTHIYTAQDVKEVIEYARLRGIRVLAEFDTPGHTLSWGPGAPGLLTPCYSGSHLSGTFGPVNPSLNSTYDFMSTLFLEISSVFPDFYLHLGGDEVDFTCWKSNPNIQAFMKKKGFTDFKQLESFYIQTLLDIVSDYDKGYVVWQEVFDNKVKVRPDTIIQVWREEMPVEYMLEMQDITRAGFRALLSAPWYLNRVKYGPDWKDMYKVEPLAFHGTPEQKALVIGGEACMWGEYVDSTNLVPRLWPRAGAVAERLWSSNLTTNIDFAFKRLSHFRCELVRRGIQAQPISVGYCEQEFEQT
A word on the Kd: it is the constant that tells how readily two partners part at equilibrium. In the case of B1, the Kd stood at 166 nM.
